These results are taken from paper PMC4486954, “Highly homologous proteins exert opposite biological activities by using different interaction interfaces” (Scientific Reports, 2015).

The subject of assay [1] is HLT-iASPP Pro. In words: Peptide array screening: HLT-iASPP Pro binding to array of iASPP Ank-SH3 derived peptides. Further details: species or system human. The note with it: CelluSpots array, N-acetylated 15-residue peptides on cellulose; 50 mM Phosphate pH 7.0, IS = 150 mM; anti His HRP, chemiluminescence. The protocol:
(§1) The CelluSpots^TM peptide micro-arrays were synthesized by INTAVIS Bioanalytical Instruments AG, Köln, Germany. The 15 residue peptides were acetylated at their N-termini and attached to a cellulose membrane via their C termini through an amide bond. For screening the binding of the array to HLT-iASPP Ank-SH3 the array was first washed for 4 h at room temperature with 50 mM Tris-HCl pH = 8 at an ionic strength (IS) of 150 mM adjusted by NaCl, 0.05% Tween20 and 2.5% (W/V) skimmed milk (buffer D) for blocking unspecific binding. HLT-iASPP Ank-SH3 was dissolved in 20 mM Phosphate buffer pH = 7.0 IS = 150 mM, 5 mM βME, 10% glycerol and 0.02% NaN3 and 2.5% skimmed milk. 5 ml of 5 μM of the protein were incubated with the arrays at 4 °C with shaking overnight. After three washes with TBST, the array was incubated with anti His HRP conjugated antibody at room temperature for 1 hour. The antibody was dissolved in buffer D. Then the array was washed again three times with TBST. Immunodetection was performed using chemiluminiscence (ECL reagents). Peptide array screening for binding HLT-iASPP Pro was also preformed as above with change of the proteins buffer. HLT-iASPP Pro was dissolved in 50 mM Phosphate buffer pH = 7.0, 10% glycerol, 0.02% NaN3, 0.001% Tween 20, IS = 150 mM and 2.5% skimmed milk.

The target in assay [2] is T1, iASPP Ank-SH3 (Homo sapiens, UniProt Q8WUF5).
T1 construct: (2) iASPP Ank-SH3 603-828; HLT tag (His tag + lipoyl domain + TEV site) (N, cleaved yes); made in house; host or cells: E. coli HMS 174 (Novagen)
T1 sequence (Q8WUF5 603-828): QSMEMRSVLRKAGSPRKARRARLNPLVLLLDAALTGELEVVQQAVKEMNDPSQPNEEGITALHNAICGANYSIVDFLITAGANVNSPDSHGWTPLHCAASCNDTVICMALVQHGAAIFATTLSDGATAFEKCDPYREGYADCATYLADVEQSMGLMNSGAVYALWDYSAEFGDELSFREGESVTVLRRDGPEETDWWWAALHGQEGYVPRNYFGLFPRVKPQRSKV
Description: Fluorescence anisotropy binding of fluorescein-labeled iASPP Pro derived peptides to iASPP Ank-SH3. The following applies: 250 μM iASPP Ank-SH3 titrated into 100 nM fluorescein-labeled peptide, 10 °C, 20 mM Hepes pH 7.3, ionic strength 50 mM. The protocol:
Binding of the iASPP Pro-derived peptides to iASPP Ank-SH3 was measured by fluorescence anisotropy using a PerkinElmer Life Sciences LS-50b spectrofluorimeter equipped with a Hamilton microlab M dispenser. Titration of iASPP Ank-SH3 into iASPP Pro derived fluorescein-labeled (FL) peptides was performed at 10 °C in 20 mM Hepes buffer, pH 7.3, 43 mM NaCl (total ionic strength = 50 mM), 10% glycerol and 5 mM β-mercaptoethanol. The excitation wavelength was set at 480 nm and the emission measured at 530 nm. The labeled peptide, dissolved in 1 ml buffer to a final concentration of 100 nM, was placed in the cuvette. 250 μM iASPP Ank-SH3 was placed in the dispenser and aliquots of 10–20 μl were added at 1.5 min intervals. The solution was then stirred for 30 sec, and the fluorescence and anisotropy were measured. Data were analyzed using the program Origin8 (OriginLab) and were fit to 1:1 binding model:
[drawing 1] (R- measured fluorescence anisotropy, R0- anisotropy value corresponding to the free peptide, ∆R- amplitude of the fluorescence anisotropy change, [Protein]- protein concentration, Kd- dissociation constant).
(In general: Polarisation of emitted light reports the rotation of a fluorescent probe.)

The test system of assay [3] is HLT-iASPP Ank-SH3. Description: Peptide array screening: HLT-iASPP Ank-SH3 binding to array of iASPP Pro derived peptides. Also noted: species or system human. The following applies: CelluSpots array, N-acetylated 15-residue peptides on cellulose; 5 μM protein, 4 °C overnight; IS = 150 mM, pH 7.0; anti His HRP, chemiluminescence. The protocol:
as §1

The target of assay [4] is iASPP 616-623 peptide 616-623 (Homo sapiens) (UniProt Q8WUF5). Description: ITC. The note with it: cited from earlier work.
For assay [5], the target named is T2, HLT-iASPP Pro (human, UniProt Q8WUF5 1-602).
T2 construct: iASPP (human), proline rich (Pro) domain, residues 1-602 of the 828-residue protein, Swiss-Prot Q8WUF5; Cloned EcoRI/NotI into pHis parallel 2HLT; calculated Mw with tag 75.9 kDa; also called iASPP Pro 1-602; iASPP 1-602; source: E. coli Rosetta2, purified (Nickel Sepharose, size exclusion chromatography); not shown: HLT (His tag, lipoyl domain, TEV protease cleavage site), N-terminal, kept
T2 sequence (looked up): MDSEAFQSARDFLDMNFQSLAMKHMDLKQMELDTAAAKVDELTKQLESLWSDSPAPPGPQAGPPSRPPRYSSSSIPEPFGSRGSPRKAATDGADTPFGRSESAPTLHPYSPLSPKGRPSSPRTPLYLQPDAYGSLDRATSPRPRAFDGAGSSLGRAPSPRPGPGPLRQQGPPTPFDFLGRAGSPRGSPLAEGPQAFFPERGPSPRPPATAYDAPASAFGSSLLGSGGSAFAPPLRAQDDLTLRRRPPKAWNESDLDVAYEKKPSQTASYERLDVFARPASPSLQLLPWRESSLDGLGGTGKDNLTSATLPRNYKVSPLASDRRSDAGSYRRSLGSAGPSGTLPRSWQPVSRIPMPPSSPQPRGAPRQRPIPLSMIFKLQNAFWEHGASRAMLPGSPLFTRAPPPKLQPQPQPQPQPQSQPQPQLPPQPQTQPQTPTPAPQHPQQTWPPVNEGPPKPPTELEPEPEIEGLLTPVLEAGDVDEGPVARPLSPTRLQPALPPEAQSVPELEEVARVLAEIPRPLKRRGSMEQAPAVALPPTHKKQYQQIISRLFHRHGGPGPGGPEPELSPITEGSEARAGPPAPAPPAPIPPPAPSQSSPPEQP
In words: peptide or protein array; CelluSpots array of 24 partly overlapping 15-residue iASPP Ank-SH3 peptides on cellulose; HLT-iASPP Pro in 50 mM phosphate pH 7.0, 10% glycerol, 0.001% Tween 20, ionic strength 150 mM, 2.5% skimmed milk; detected with anti His HRP antibody. The note with it: both partners purified.

Assay [6] deals with T1, iASPP Ank-SH3. The note with it: cited from earlier work. The text has this:
iASPP 1-478 and specifically iASPP 1-240 but not iASPP 249-482 were previously shown to bind iASPP Ank-SH3 in a pull down assay. We further mapped this interaction using peptide arrays and identified the exact regions in iASPP Pro that bind iASPP Ank-SH3.

In assay [7] the target is T3, iASPP Ank-SH3 (human, UniProt Q8WUF5 603-828).
T3 construct: iASPP (human), four ankyrin repeats and SH3 domain, residues 603-828, Swiss-Prot Q8WUF5; also called iASPP Ank-SH3 603-828; cleaved iASPP Ank-SH3; source: E. coli HMS 174, purified (Nickel Sepharose, TEV cleavage, second Nickel column, size exclusion chromatography); not shown: HLT (His tag, lipoyl domain, TEV protease cleavage site), N-terminal, cleaved
T3 sequence (looked up): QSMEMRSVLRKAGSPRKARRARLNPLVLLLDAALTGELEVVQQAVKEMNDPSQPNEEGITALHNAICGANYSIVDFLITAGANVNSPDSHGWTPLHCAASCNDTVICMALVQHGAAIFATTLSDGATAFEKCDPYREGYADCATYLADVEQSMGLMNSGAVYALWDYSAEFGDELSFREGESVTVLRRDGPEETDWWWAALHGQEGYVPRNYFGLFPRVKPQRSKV
Description: fluorescence polarisation; fluorescence anisotropy; 250 uM iASPP Ank-SH3 titrated into 100 nM fluorescein-labeled peptide; 10 °C; 20 mM Hepes pH 7.3, 43 mM NaCl (ionic strength 50 mM), 10% glycerol, 5 mM β-mercaptoethanol; fit to a 1:1 model. The note with it: both partners purified.

No end group written: not given here.

Consider “WAALHGQEGYVPRNY [iASPP 800-814, array peptide, iASPP Ank-SH3 residues 800-814]”, for which, in assay [1], the “binding of HLT-iASPP Pro to the peptide in the array” value is on record as “bound”. As to “iASPP 83-90: iASPP Pro derived peptide that includes the iASPP phosphorylation site S84 (GSPRKAAT; UniProt Q8WUF5 83-90, looked up, fragment)”, the “binding to iASPP Ank-SH3 (in words)” value in assay [2] is on record as “did not bind”. In addition, the “binding of HLT-iASPP Ank-SH3 to the peptide in the array” value in assay [3] is on record as “did not bind”. iASPP Ank-SH3 (from UniProt Q8WUF5): in assay [4], the Kd was 45 µM.

For “SMEMRSVLRKAGSPR [iASPP 604-618, array peptide, iASPP residues 604-618]”, the “binding of HLT-iASPP Ank-SH3 to the peptide in the array” value in assay [3] was “bound”.

Turning to “YALWDYSAEFGDELS [iASPP 764-778, array peptide, iASPP Ank-SH3 residues 764-778, RT loop]”, in assay [1], the “binding of HLT-iASPP Pro to the peptide in the array” value is “bound”. Still for that read-out and setting: the entry for “EGYADCATYLADVEQ [iASPP 739-753, array peptide, iASPP Ank-SH3 residues 739-753, fourth ankyrin repeat]” is “bound”.

B1: iASPP Ank-SH3 array peptide 764-778 (spot E19) (peptide)
peptide: Ac-YALWDYSAEFGDELS-{cellulose membrane (amide bond)}
modifications: also: C-terminus bound to cellulose membrane via amide
notes: source: synthetic peptide on CelluSpots array (INTAVIS)
Consider B1, for which the binding result in assay [5] is listed as “binds”.

B2: iASPP Ank-SH3 array peptide 739-753 (spot E16) (peptide)
peptide: Ac-EGYADCATYLADVEQ-{cellulose membrane (amide bond)}
modifications: also: C-terminus bound to cellulose membrane via amide
notes: as for B1
Regarding B2, the binding result in assay [5] is listed as “binds”.

B3: iASPP 249-482: iASPP fragment 249-482 of a previous pull down assay (protein, UniProt Q8WUF5 249-482, looked up, fragment)
chain: AWNESDLDVAYEKKPSQTASYERLDVFARPASPSLQLLPWRESSLDGLGGTGKDNLTSATLPRNYKVSPLASDRRSDAGSYRRSLGSAGPSGTLPRSWQPVSRIPMPPSSPQPRGAPRQRPIPLSMIFKLQNAFWEHGASRAMLPGSPLFTRAPPPKLQPQPQPQPQPQSQPQPQLPPQPQTQPQTPTPAPQHPQQTWPPVNEGPPKPPTELEPEPEIEGLLTPVLEAGDVDEG
As for B3, in assay [6], the “binding to iASPP Ank-SH3 in pull down assay” value (shortened to “binding … in pull down assay”) is given as “not”.

B4: iASPP Ank-SH3 array peptide 800-814 (spot E23) (peptide)
peptide: Ac-WAALHGQEGYVPRNY-{cellulose membrane (amide bond)}
modifications: also: C-terminus bound to cellulose membrane via amide
notes: iASPP (human) residues 800-814; also called iASPP 800-814; source: synthetic peptide on CelluSpots array (INTAVIS)
Regarding B4, the binding result in assay [5] is “binds”.

The molecule {5(6)‑carboxyfluorescein}-KKQYQQIISRLFHRHGGPGPGGP [fluorescein labeled iASPP 540-562] displayed a Kd in assay [7] of 34 ± 2 µM. As to {5(6)‑carboxyfluorescein}-QAGPPSRPPRYSSSS [fluorescein labeled iASPP 60-74], the Kd in assay [7] came out at 35 ± 2 µM.

B5: iASPP 1-478: iASPP fragment 1-478 of a previous pull down assay (protein, UniProt Q8WUF5 1-478, looked up, fragment)
chain: MDSEAFQSARDFLDMNFQSLAMKHMDLKQMELDTAAAKVDELTKQLESLWSDSPAPPGPQAGPPSRPPRYSSSSIPEPFGSRGSPRKAATDGADTPFGRSESAPTLHPYSPLSPKGRPSSPRTPLYLQPDAYGSLDRATSPRPRAFDGAGSSLGRAPSPRPGPGPLRQQGPPTPFDFLGRAGSPRGSPLAEGPQAFFPERGPSPRPPATAYDAPASAFGSSLLGSGGSAFAPPLRAQDDLTLRRRPPKAWNESDLDVAYEKKPSQTASYERLDVFARPASPSLQLLPWRESSLDGLGGTGKDNLTSATLPRNYKVSPLASDRRSDAGSYRRSLGSAGPSGTLPRSWQPVSRIPMPPSSPQPRGAPRQRPIPLSMIFKLQNAFWEHGASRAMLPGSPLFTRAPPPKLQPQPQPQPQPQSQPQPQLPPQPQTQPQTPTPAPQHPQQTWPPVNEGPPKPPTELEPEPEIEGLLTPVLEAGD
In the case of B5, in assay [6], the “binding … in pull down assay” value is reported as “bind”.

B6: iASPP 1-240: iASPP fragment 1-240 of a previous pull down assay (protein, UniProt Q8WUF5 1-240, looked up, fragment)
chain: MDSEAFQSARDFLDMNFQSLAMKHMDLKQMELDTAAAKVDELTKQLESLWSDSPAPPGPQAGPPSRPPRYSSSSIPEPFGSRGSPRKAATDGADTPFGRSESAPTLHPYSPLSPKGRPSSPRTPLYLQPDAYGSLDRATSPRPRAFDGAGSSLGRAPSPRPGPGPLRQQGPPTPFDFLGRAGSPRGSPLAEGPQAFFPERGPSPRPPATAYDAPASAFGSSLLGSGGSAFAPPLRAQDDL
As for B6, the “binding … in pull down assay” value in assay [6] was “bind”.

By Kd is commonly meant the equilibrium constant for the complex coming apart.
